Test results from the supplement of paper PMC9876800.

Test system: peptide library, one residue held at a place counted from the S/T acceptor
Assay: relative phosphorylation of the sub-library (ratio to the mean residue at this position); higher = residue favoured
Settings: human
How it was run: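 Relative sub-library phosphorylation, a ratio to the mean residue at that position, was obtained by phosphorimaging and densitometry of spots on streptavidin membranes. Before capture, purified recombinant kinases were incubated for 90 min under kinase-specific conditions with 50 μM biotinylated degenerate peptide sub-libraries and 50 μM ATP spiked with γ-32P-ATP. Each sub-library fixed one residue at one position around a central Ser/Thr.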

NUAK2, construct: Full length, sequence (Q9H093 whole entry, looked up): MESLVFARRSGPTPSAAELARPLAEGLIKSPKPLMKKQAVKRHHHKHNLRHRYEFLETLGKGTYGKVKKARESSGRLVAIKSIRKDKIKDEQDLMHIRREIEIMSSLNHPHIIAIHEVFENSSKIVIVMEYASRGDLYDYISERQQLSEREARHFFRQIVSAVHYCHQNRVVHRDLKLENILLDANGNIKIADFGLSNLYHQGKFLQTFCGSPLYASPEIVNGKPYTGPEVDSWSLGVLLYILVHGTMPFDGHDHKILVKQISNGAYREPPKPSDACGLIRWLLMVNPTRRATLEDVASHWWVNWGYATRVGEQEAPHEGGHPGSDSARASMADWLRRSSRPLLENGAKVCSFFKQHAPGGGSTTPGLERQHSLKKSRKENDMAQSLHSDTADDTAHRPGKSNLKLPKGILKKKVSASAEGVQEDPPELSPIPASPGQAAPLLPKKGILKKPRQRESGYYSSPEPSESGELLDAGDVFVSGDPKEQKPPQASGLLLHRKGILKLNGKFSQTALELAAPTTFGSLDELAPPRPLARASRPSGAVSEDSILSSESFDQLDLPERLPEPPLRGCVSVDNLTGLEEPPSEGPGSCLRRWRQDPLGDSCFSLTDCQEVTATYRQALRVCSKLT
BRAF, construct: aa444-721, sequence (P15056 444-721, looked up): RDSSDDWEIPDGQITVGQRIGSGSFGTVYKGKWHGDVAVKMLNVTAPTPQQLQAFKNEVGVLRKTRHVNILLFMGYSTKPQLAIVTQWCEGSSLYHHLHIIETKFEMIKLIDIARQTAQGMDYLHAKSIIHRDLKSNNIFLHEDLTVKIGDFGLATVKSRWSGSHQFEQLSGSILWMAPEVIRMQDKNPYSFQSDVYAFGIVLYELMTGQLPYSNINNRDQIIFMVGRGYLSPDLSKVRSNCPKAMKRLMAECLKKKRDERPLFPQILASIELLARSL
HIPK4, construct: Full length, sequence (Q8NE63 whole entry, looked up): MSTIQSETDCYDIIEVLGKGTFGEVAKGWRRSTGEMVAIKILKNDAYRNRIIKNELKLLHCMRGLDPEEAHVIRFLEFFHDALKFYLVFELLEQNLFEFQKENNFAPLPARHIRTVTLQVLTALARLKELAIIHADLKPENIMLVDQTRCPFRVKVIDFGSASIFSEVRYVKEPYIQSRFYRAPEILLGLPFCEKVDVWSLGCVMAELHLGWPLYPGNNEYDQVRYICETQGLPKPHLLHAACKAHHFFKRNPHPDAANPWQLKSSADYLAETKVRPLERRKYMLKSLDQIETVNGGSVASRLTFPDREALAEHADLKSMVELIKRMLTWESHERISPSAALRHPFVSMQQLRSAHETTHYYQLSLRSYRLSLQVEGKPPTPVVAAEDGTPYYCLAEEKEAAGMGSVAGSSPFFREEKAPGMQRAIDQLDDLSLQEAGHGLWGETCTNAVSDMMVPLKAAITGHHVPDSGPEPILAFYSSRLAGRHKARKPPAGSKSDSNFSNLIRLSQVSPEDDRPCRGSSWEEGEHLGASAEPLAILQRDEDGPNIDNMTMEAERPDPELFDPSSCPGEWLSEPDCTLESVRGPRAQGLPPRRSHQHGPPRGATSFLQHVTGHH
MARK1, construct: Full length, sequence (Q9P0L2 whole entry, looked up): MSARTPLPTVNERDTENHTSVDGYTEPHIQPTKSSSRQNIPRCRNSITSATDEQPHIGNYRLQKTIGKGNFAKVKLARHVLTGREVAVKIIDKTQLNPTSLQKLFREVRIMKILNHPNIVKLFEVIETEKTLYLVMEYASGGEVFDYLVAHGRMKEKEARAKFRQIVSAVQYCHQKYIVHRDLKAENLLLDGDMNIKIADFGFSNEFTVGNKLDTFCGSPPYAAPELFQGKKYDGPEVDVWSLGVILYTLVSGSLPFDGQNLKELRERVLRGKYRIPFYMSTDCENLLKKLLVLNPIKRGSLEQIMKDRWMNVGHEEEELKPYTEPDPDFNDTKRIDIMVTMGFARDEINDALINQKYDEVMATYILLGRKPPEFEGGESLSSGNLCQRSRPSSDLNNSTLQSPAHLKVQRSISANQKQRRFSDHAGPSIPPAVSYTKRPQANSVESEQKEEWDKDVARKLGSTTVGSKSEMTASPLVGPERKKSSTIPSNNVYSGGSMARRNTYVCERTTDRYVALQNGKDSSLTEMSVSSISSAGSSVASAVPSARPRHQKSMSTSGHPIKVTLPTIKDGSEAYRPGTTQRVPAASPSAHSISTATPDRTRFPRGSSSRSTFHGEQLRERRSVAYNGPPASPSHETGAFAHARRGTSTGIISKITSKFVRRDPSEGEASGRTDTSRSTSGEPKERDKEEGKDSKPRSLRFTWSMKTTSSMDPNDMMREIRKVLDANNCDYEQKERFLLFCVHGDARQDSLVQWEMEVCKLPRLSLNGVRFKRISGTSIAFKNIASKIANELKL

MARK1, construct: Full length (from UniProt Q9P0L2)
relative phosphorylation
Settings	at +1	at +2	at +3	at +4	at -1	at -2	at -3	at -4	at -5
A fixed	0.647	0.684	0.599	0.352	1.02	1.84	0.723	0.974	0.972
D fixed	0.508	0.722	3.18	0.56	0.625	0.335	0.358	0.782	0.715
E fixed	0.778	1.09	0.947	0.373	0.616	0.261	0.408	0.696	0.695
F fixed	0.81	0.764	0.898	0.713	0.635	1.48	0.885	1.05	1.18
G fixed	0.497	0.392	0.379	0.421	2.38	0.96	0.556	1.07	0.906
H fixed	0.787	1.08	1.44	0.589	0.783	1.35	1.36	1.25	0.858
I fixed	1.2	0.885	0.565	2.73	0.557	0.503	0.555	0.654	0.974
K fixed	0.837	0.57	0.587	0.483	1.72	0.994	2.18	1.38	1.26
L fixed	1.42	1.13	0.877	4.86	0.751	0.491	0.642	0.747	1.51
M fixed	2.28	1.12	0.774	1.4	0.963	0.76	0.883	0.967	1.27
N fixed	0.949	0.968	2.63	0.679	1.1	0.576	0.571	0.865	0.739
P fixed	0.28	0.59	0.171	0.382	1.13	0.428	0.716	0.856	0.775
Q fixed	1.76	1.04	0.911	0.615	1.16	0.569	0.7	0.805	0.862
R fixed	1.14	0.69	0.476	0.384	1.41	1.08	3.66	1.75	1.48
V fixed	1.36	0.879	0.487	1.28	0.75	0.676	0.525	0.798	0.903
W fixed	0.847	3.44	1.03	0.626	0.636	3.1	1.39	1.26	1.02
Y fixed	0.903	0.958	1.05	0.555	0.766	1.6	0.884	1.09	0.877
pThr fixed	1.58	1.08	0.457	0.348	0.378	0.43	0.445	0.692	0.614
pTyr fixed	0.712	0.641	0.828	0.368	0.881	0.508	0.543	0.659	0.758

NUAK2, construct: Full length (from UniProt Q9H093)
relative phosphorylation
Settings	at +1	at +2	at +3	at +4	at -1	at -2	at -3	at -4	at -5
A fixed	0.911	0.916	0.886	0.691	1.22	1.89	0.724	1.15	0.804
D fixed	0.559	0.547	1.29	0.509	0.855	0.865	0.378	0.554	0.385
E fixed	0.598	0.535	0.635	0.498	0.549	0.503	0.514	0.867	0.435
F fixed	1.71	0.654	1.16	0.862	0.705	0.722	0.461	0.764	1.07
G fixed	1.18	1.14	0.712	0.702	1.42	0.979	0.725	0.862	0.603
H fixed	0.898	1.35	1.61	0.907	0.911	0.659	1.01	0.912	0.605
I fixed	0.691	0.99	0.713	2.05	0.45	0.761	0.452	1	2.27
K fixed	1.08	1.66	1.26	1.32	1.44	0.975	2.61	1.59	1.3
L fixed	0.739	0.839	0.705	1.87	0.84	0.528	0.541	0.858	1.73
M fixed	1.24	0.909	0.828	1.55	1.07	0.83	0.73	1.37	1.02
N fixed	1	1.07	1.44	0.74	1.26	2.66	0.566	0.628	0.435
P fixed	0.896	0.727	0.529	0.679	1.42	0.602	0.88	0.86	0.735
Q fixed	1.16	0.745	0.766	0.624	1.09	1.23	0.739	0.954	0.613
R fixed	1.51	2.48	1.69	1.1	1.65	1.23	5.28	1.8	1.66
V fixed	0.763	0.927	0.614	1.07	0.581	1.26	0.443	1.13	1.74
W fixed	0.868	0.717	1.07	0.931	0.557	0.598	0.471	0.837	0.687
Y fixed	1.19	0.785	1.09	0.896	0.962	0.709	0.474	0.856	0.894
pThr fixed	1.13	1.29	0.495	0.708	0.389	0.808	0.725	0.919	0.653
pTyr fixed	0.814	0.59	0.71	0.605	1.03	0.477	0.531	0.602	0.76

BRAF, construct: aa444-721 (from UniProt P15056)
relative phosphorylation
Settings	at +1	at +2	at +3	at +4	at -1	at -2	at -3	at -4	at -5
A fixed	0.66	0.762	0.791	0.965	1.06	1.07	1.09	0.86	1.06
D fixed	0.675	1.38	0.941	1.09	1.92	0.748	0.994	1.52	1.48
E fixed	1.3	0.94	0.898	0.966	1.36	1	1.01	1.21	1.18
F fixed	1.44	0.67	1.06	0.762	0.539	0.983	0.935	0.684	0.7
G fixed	0.592	0.644	0.953	1.15	1.05	0.572	0.752	0.953	0.991
H fixed	0.864	1.49	0.97	1.09	1.78	1.26	0.902	0.908	1.11
I fixed	1.95	1.09	1.1	0.733	0.422	1.64	0.712	0.488	0.701
K fixed	0.533	0.749	0.714	1.11	0.775	0.686	1.34	0.743	1.32
L fixed	1.22	0.773	1.25	0.842	0.609	1.05	1.51	0.596	0.762
M fixed	1.26	1.23	1.22	0.826	1.23	0.931	1.27	0.629	0.897
N fixed	0.849	1.5	1.13	1.24	1.77	0.932	0.861	0.905	1.14
P fixed	0.377	0.631	0.805	1.57	0.337	0.499	0.666	0.945	1.15
Q fixed	0.956	1.51	0.995	1	1.14	0.892	0.929	0.765	0.889
R fixed	0.673	0.848	0.902	1.08	1.17	0.839	1.46	0.629	1.06
V fixed	1.76	1.2	0.935	0.661	0.504	1.55	0.707	0.546	0.687
W fixed	0.769	0.802	1.44	1.1	0.589	1.09	1.13	3.93	1.01
Y fixed	1.12	0.776	0.898	0.813	0.775	1.25	0.725	0.69	0.859
pThr fixed	1.08	0.723	0.835	0.85	0.577	0.992	0.807	0.776	0.945
pTyr fixed	0.912	0.736	0.945	0.792	1.13	1.58	0.734	0.655	1

HIPK4, construct: Full length (from UniProt Q8NE63)
relative phosphorylation
Settings	at +1	at +2	at +3	at +4	at -1	at -2	at -3	at -4	at -5
A fixed	0.793	1.38	1.1	1.63	1.15	2.12	0.851	0.995	0.967
D fixed	0.277	0.726	0.71	0.68	0.67	0.463	0.711	0.697	0.886
E fixed	0.34	0.618	0.505	0.578	0.693	0.354	0.477	0.702	0.719
F fixed	0.339	1.46	1.08	1.11	0.616	0.478	0.453	0.816	1.13
G fixed	0.586	1.58	1.49	1.07	1.03	1.07	0.877	1.27	1.26
H fixed	0.671	1.13	0.857	0.716	0.991	0.507	0.649	0.803	1.08
I fixed	0.427	0.675	0.857	1.31	0.589	0.837	0.807	0.82	0.841
K fixed	1	0.686	0.565	0.63	1.72	0.808	0.926	0.864	0.833
L fixed	0.508	0.696	0.816	1.64	0.783	0.916	0.669	1.12	0.968
M fixed	0.403	0.805	0.812	1.53	0.836	0.602	0.661	0.895	0.735
N fixed	1.15	0.806	0.752	0.59	0.984	0.875	0.803	0.639	0.855
P fixed	5	2.12	3.82	1.33	2.03	4.06	1.14	2.12	1.15
Q fixed	0.894	0.753	0.657	0.631	1.23	0.639	0.799	0.759	0.842
R fixed	3.2	0.719	0.525	0.503	1.57	1.35	5.38	2.01	1.47
V fixed	0.684	0.669	0.647	1.28	0.687	1.09	0.615	0.67	0.793
W fixed	0.314	0.988	0.947	1	0.592	0.401	0.562	0.955	1.25
Y fixed	0.415	1.2	0.857	0.785	0.836	0.434	0.626	0.867	1.22
pThr fixed	0.405	0.51	0.71	0.616	0.417	0.585	0.547	0.844	0.67
pTyr fixed	0.36	0.516	0.998	0.728	0.619	0.404	0.561	0.697	0.898
